In article doi:10.1101/2024.10.28.620641 (bioRxiv, 2024):

Target: the molecule itself
Test: cryo-EM structure

B1: Caulobacter crescentus Tad pilus ATPase CpaF (enzyme, Caulobacter crescentus NA1000, UniProt Q9L714 1-501, looked up)
chain: MFGKRDSSASGDPKAPPPAPAGGATIATRPQRVEPVAAPEPKAPAPKVSGPAPKPTVGLEQLRAAQGQPQTANIVREQSDYYHATKTTIFNALLNTIDLSQLAQLDLKQAGEEIRDIVAELVAIKNVSMSVAEQEHLVQDIINDVLGYGPLEPLLARDDIADIMVNGAHRVFIEVGGKVQLTNVRFRDNLQLMNICQRIVSQVGRRVDESSPICDARLPDGSRVNVIAPPLALDGPTLTIRKFKKDKLTMKNLVEFASISPEGARVLGVIGACRCNLVISGGTGSGKTTLLNTMTAFIDPTERVVTCEDAAELQLQQPHVVRLETRPPNLEGSGAVTMRDLVKNCLRMRPERIIVGEVRGPEAFDLLQAMNTGHDGSMGTLHANSPREAISRIESMITMGGYGLPSKTIKEMIVGSVDVIIQAARLRDGSRRITHITEVVGLEGDVIVTQDLFVYEITGEDEHGKVVGKHRSTGIARPRFWDRARYYGLERELAEALDAAE
stoichiometry N: 6
